Source: publication PMC10911789

Target: Recombinant spike, SARS-CoV-2 stabilized protein (BEI Resources NR-52724) (SARS-CoV-2) (UniProt P0DTC2)
Test: BLI

Chain of recombinant human GAPDH (glyceraldehyde-3-phosphate dehydrogenase) (P04406 whole entry): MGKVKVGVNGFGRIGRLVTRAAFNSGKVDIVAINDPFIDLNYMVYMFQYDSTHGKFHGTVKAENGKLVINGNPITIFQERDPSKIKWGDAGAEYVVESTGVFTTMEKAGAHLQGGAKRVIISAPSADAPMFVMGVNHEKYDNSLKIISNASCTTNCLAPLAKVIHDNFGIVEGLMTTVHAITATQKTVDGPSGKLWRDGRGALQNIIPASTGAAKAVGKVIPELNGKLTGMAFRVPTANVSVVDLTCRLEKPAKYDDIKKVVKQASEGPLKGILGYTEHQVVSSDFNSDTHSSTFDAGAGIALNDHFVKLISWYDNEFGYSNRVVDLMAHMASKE

## recombinant human GAPDH (glyceraldehyde-3-phosphate dehydrogenase) (from UniProt P04406 1-335) (enzyme)
  Kd: 61.9 nM
